From the supplement of paper PMC9112550, “Optimization of the antimicrobial peptide Bac7 by deep mutational scanning” (BMC Biology, 2022)

system: Escherichia coli TOP10; experiment: shrunken log2 fold change of peptide-encoding DNA abundance (4.5 h post-induction vs induction); higher = less antimicrobial activity (less host growth inhibition); details: time post-induction: 4.5 h; library: site-saturation at positions 5, 18, 19, 20
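Note: peptides expressed intracellularly from a pBAD plasmid library in pooled LB shake-flask culture, induced with 0.3% L-arabinose, DNA abundance read by NGS, three biological replicates, DESeq2 with apeglm shrinkage.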

Sequence	shrunken log2 fold change
RRIRMRPPRLPRPRPRPLMRPRP	1.16
RRIRKRPPRLPRPRPRPHWGPRP	0.209
RRIRGRPPRLPRPRPRPGSGPRP	0.808
RRIRARPPRLPRPRPRPSQCPRP	-0.121
RRIRARPPRLPRPRPRPCVVPRP	0.198
RRIRFRPPRLPRPRPRPVWDPRP	0.0852
RRIRIRPPRLPRPRPRPQHTPRP	-1
RRIRFRPPRLPRPRPRPSCSPRP	-0.498
RRIRHRPPRLPRPRPRPVMPPRP	0.189
RRIRSRPPRLPRPRPRPWCWPRP	0.0877
RRIRARPPRLPRPRPRPDVYPRP	0.152
RRIRLRPPRLPRPRPRPSIWPRP	-0.548
RRIRNRPPRLPRPRPRPWLAPRP	-0.254
RRIRFRPPRLPRPRPRPEDFPRP	0.0568
RRIRWRPPRLPRPRPRPHKWPRP	0.18
RRIRYRPPRLPRPRPRPVLQPRP	-0.297
RRIRMRPPRLPRPRPRPMWYPRP	-0.288
RRIRPRPPRLPRPRPRPNYVPRP	-0.352
RRIRDRPPRLPRPRPRPFVGPRP	-0.0346
RRIRCRPPRLPRPRPRPMVDPRP	0.02
RRIRYRPPRLPRPRPRPPLTPRP	-0.403
RRIRLRPPRLPRPRPRPGINPRP	-0.354
RRIRCRPPRLPRPRPRPTAAPRP	1.33
RRIRDRPPRLPRPRPRPRWTPRP	0.289
RRIRKRPPRLPRPRPRPKQAPRP	0.00509

Sequence	shrunken log2 fold change
RRIRSRPPRLPRPRPRPVGGPRP	0.433
RRIRRRPPRLPRPRPRPWNCPRP	0.0332
RRIRNRPPRLPRPRPRPDAIPRP	0.0267
RRIRIRPPRLPRPRPRPTCMPRP	-0.059
RRIRERPPRLPRPRPRPHVWPRP	0.191
RRIRPRPPRLPRPRPRPGNTPRP	-0.241
RRIRERPPRLPRPRPRPKMVPRP	-0.22
RRIRSRPPRLPRPRPRPVIMPRP	-0.36
RRIRDRPPRLPRPRPRPWFLPRP	0.109
RRIRTRPPRLPRPRPRPKPRPRP	0.692
RRIRWRPPRLPRPRPRPFMIPRP	-0.798
RRIRARPPRLPRPRPRPVPTPRP	0.57
RRIRRRPPRLPRPRPRPVSYPRP	0.241
RRIRNRPPRLPRPRPRPEWTPRP	-0.0178
RRIRVRPPRLPRPRPRPQIMPRP	-0.745
RRIRYRPPRLPRPRPRPYWYPRP	-0.322
RRIRWRPPRLPRPRPRPSPEPRP	0.383
RRIRNRPPRLPRPRPRPKELPRP	0.0238
RRIRTRPPRLPRPRPRPKEEPRP	0.00448
RRIRRRPPRLPRPRPRPERWPRP	0.613
RRIRHRPPRLPRPRPRPGKDPRP	-0.0922
RRIRNRPPRLPRPRPRPEVYPRP	0.0702
RRIRMRPPRLPRPRPRPYQDPRP	0.0259
RRIRDRPPRLPRPRPRPNSNPRP	-0.573
RRIRFRPPRLPRPRPRPIGTPRP	-0.329

Sequence	shrunken log2 fold change
RRIRGRPPRLPRPRPRPFSVPRP	0.429
RRIRFRPPRLPRPRPRPENEPRP	0.15
RRIRCRPPRLPRPRPRPSWVPRP	-0.273
RRIRWRPPRLPRPRPRPRTPPRP	0.559
RRIRSRPPRLPRPRPRPMRKPRP	0.853
RRIRCRPPRLPRPRPRPMNGPRP	-0.0977
RRIRCRPPRLPRPRPRPGIMPRP	-0.594
RRIRWRPPRLPRPRPRPGDFPRP	0.564
RRIRYRPPRLPRPRPRPHCFPRP	-0.165
RRIRGRPPRLPRPRPRPWIEPRP	-0.0591
RRIRERPPRLPRPRPRPAVWPRP	0.421
RRIRLRPPRLPRPRPRPRPDPRP	0.177
RRIRPRPPRLPRPRPRPTMLPRP	-0.114
RRIRFRPPRLPRPRPRPMLHPRP	-0.376
RRIRYRPPRLPRPRPRPFLHPRP	-0.786
RRIRKRPPRLPRPRPRPNCCPRP	0.179
RRIRMRPPRLPRPRPRPKGGPRP	0.115
RRIRCRPPRLPRPRPRPSYHPRP	0.811
RRIRDRPPRLPRPRPRPPKHPRP	0.0331
RRIRQRPPRLPRPRPRPHDSPRP	-0.0135
RRIRWRPPRLPRPRPRPEQRPRP	0.248
RRIRGRPPRLPRPRPRPHQFPRP	0.106
RRIRCRPPRLPRPRPRPPLQPRP	0.228
RRIRKRPPRLPRPRPRPRDHPRP	0.494
RRIRERPPRLPRPRPRPKSVPRP	-0.00947
